For assay [1], the target named is T1, E. coli-expressed recombinant cynomolgus IL-13 (cynomolgus, UniProt Q5I6E4 21-132 (Macaca thibetana entry)).
T1 construct: also called cyno IL13 (CA); cIL-13
T1 chain: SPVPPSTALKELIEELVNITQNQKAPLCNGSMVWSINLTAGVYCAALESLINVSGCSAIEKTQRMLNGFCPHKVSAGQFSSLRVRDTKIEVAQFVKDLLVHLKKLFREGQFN
As to the kind of experiment: cynomolgus IL-13 binding sandwich ELISA. In general terms: ELISA stands for enzyme-linked immunosorbent assay.

The target of assay [2] is T2, 16mer biotinylated human IL-13 peptide number 24 (human, N-terminal biotin; C-terminal amide).
T2 construct: format Biotin-SGSG-PEPTIDE-amide; also called Peptide 24
T2 peptide: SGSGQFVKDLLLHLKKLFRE
As to the kind of experiment: BIAcore analysis 3, antibody over biotinylated peptide on SA chip. As to the method:
Completed for the 16mer biotinylated human IL-13 peptide number 24 (identified as the linear binding epitope for parental mAb 6A1, see section 6.7). Note that the absolute KD values obtained for binding to peptide ligands are often quite different to those seen for binding to whole protein targets.
The kinetics analysis was performed on a Biacore 3000 machine using direct binding of antibody to immobilised IL-13 peptide. Briefly, IL-13 biotinylated peptide was captured using a Biacore SA (strepavidin) Biosensor chip. The antibodies were then passed over the sensor surface at various concentrations. The subsequent binding curves were analysed with Biacore analysis software BIAeval 4.1 to determine kinetics. The experiment was carried out using Biacore HBS-EP buffer

Assay [3] has as its target E. coli-expressed recombinant Q130 human IL-13 (human, UniProt P35225 35-146, limits assumed). As to the kind of experiment: cell-based or functional assay.
Assay [4] addresses T1, E. coli-expressed recombinant …. As to the kind of experiment: cell-based or functional assay.
Assay [5] addresses mammalian-expressed (CHO cell) human IL-13 (human, UniProt P35225 35-146, limits assumed). As to the kind of experiment: cell-based or functional assay.
Assay [6] has as its target T3, E. coli-expressed recombinant human IL-13 (human, UniProt P35225 35-146). As to the kind of experiment: cell-based or functional assay.
Assay [7] addresses T1, E. coli-expressed recombinant …. As to the kind of experiment: BIAcore analysis 1, antibody captured, IL-13 in solution. The method, then: (§1) Completed for both human and cynomolgus IL-13 (E. coli-expressed protein). The quoted KD values are the average from 5 different IL-13 concentration curves (done in triplicate). Note that mass transfer issues were apparent in this analysis and that a modified experimental protocol (to correct for this issue) has been completed in analysis 4 (where no mass transfer issues were present).
(§2) The kinetics analysis was performed on a Biacore 3000 machine, using an antibody capture method. Briefly, for the chimeric 6A1 and humanised antibody constructs Protein A capture was used, whilst for the parental murine 6A1 antibody, capture was by a anti-mouse Fc antibody supplied by Biacore. Briefly, the method is as follows, the capture ligand was immobilised to a CM5 Biosensor chip by primary amine coupling in accordance with Biacore standard protocols and using the reagents supplied in Biacores' primary amine coupling kit. The method involves activation CM5 sensor surface by passing a solution of 50 mM N-hydroxy-succinimide (NHS) and 200 mM N-ethyl-N′-dimethylaminopropyl […] (EDC) over the surface. Then, the capture ligand (dissolved in acetate buffer pH5 or pH4.5) was coupled to the activated sensor surface after which any still activated esters were blocked by an injection of 1M ethanolamine hydrochloride, pH8.5.
(§3) The candidate antibody was then passed over the Protein A or anti-mouse Fc antibody surface, depending on whether it was human or mouse in origin and captured. Once a stable binding signal was seen IL13 was passed over the captured antibody surface at various defined concentrations. The subsequent binding curves were analysed with Biacore analysis software BIAeval v4.1 to determine kinetics. The experiments were carried out using Biacore HBS-EP buffer.
In general terms: Surface plasmon resonance follows binding to a sensor surface in real time, without labels.

Assay [8] deals with T3, E. coli-expressed recombinant human …. The description is as above. As to the method: as §1, §2, §3
The target of assay [9] is T4, E. coli-expressed recombinant det-1 tagged human IL-13 (human, UniProt P35225 35-146).
T4 construct: also called Det-1 tagged human IL-13 (made in-house); not shown: det-1 tag
As to the kind of experiment: competition ELISA: inhibition of det-1 tagged human IL-13 binding to human IL-13Rα2-Fc.

In assay [10] the target is T5, alanine scanning peptide 63 (human, N-terminal biotin).
T5 construct: the entry already carries the change; also called K103A peptide
T5 peptide: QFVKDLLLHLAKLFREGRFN
As to the kind of experiment: alanine scanning peptide ELISA, n=2. The text has this: (§4) An ELISA method was used to detect binding of immobilised biotinylated peptide to the parental mAb 6A1 and L1+A1.
(§5) This was to determine if there was any major plate-to-plate variation and in both cases, there was no apparent variation.

For assay [11], the target named is T6, alanine scanning peptide 66 (human, N-terminal biotin).
T6 construct: the entry already carries the change; also called F106A peptide
T6 peptide: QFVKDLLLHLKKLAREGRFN
As to the kind of experiment: alanine scanning peptide ELISA, n=2.
From the text: as §4, §5

Assay [12] addresses T7, alanine scanning peptide 65 (human, N-terminal biotin).
T7 construct: the entry already carries the change; also called L105A peptide
T7 peptide: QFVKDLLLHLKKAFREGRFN
As to the kind of experiment: alanine scanning peptide ELISA, n=2.
From the text: as §4, §5

Assay [13] addresses T8, alanine scanning peptide 67 (human, N-terminal biotin).
T8 construct: the entry already carries the change; also called R107A peptide
T8 peptide: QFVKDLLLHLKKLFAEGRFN
As to the kind of experiment: alanine scanning peptide ELISA, n=2.
From the text: as §4, §5

Assay [14] deals with T9, alanine scanning peptide 68 (human, N-terminal biotin).
T9 peptide: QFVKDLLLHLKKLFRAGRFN
As to the kind of experiment: alanine scanning peptide ELISA, n=2.
From the text: as §4, §5

The target of assay [15] is T10, alanine scanning peptide 62 (human, N-terminal biotin).
T10 peptide: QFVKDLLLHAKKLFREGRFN
As to the kind of experiment: alanine scanning peptide ELISA, n=2.
From the text: as §4, §5

The target of assay [16] is T11, alanine scanning peptide 64 (human, N-terminal biotin).
T11 construct: the entry already carries the change; also called K104A peptide
T11 peptide: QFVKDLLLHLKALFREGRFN
As to the kind of experiment: alanine scanning peptide ELISA, n=2.
From the text: as §4, §5

Assay [17] addresses T12, alanine scanning peptide 1 (parental sequence peptide) (human, N-terminal biotin).
T12 construct: also called parental peptide
T12 peptide: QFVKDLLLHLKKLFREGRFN
As to the kind of experiment: alanine scanning peptide ELISA, n=2.
From the text: as §4, §5

Assay [18] concerns the target T4, E. coli-expressed recombinant det-1 …. As to the kind of experiment: competition ELISA: inhibition of det-1 tagged human IL-13 binding to human IL-13Rα1-Fc.

T3 sequence (P35225 other isoform, or with tags, fused parts or gaps): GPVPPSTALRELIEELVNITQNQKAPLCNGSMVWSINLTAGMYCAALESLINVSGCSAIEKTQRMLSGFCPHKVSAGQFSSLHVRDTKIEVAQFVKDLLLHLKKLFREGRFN
T4 sequence (P35225 other isoform, or with tags, fused parts or gaps): as above
Sequence of E. coli-expressed recombinant Q130 human IL-13 (P35225 35-146 limits assumed): as the sequence (P35225 other isoform, or with tags, fused parts or gaps) above, with R110Q counted along it
Sequence of mammalian-expressed (CHO cell) human IL-13 (P35225 other isoform, or with tags, fused parts or gaps limits assumed): as the sequence (P35225 other isoform, or with tags, fused parts or gaps) above

B1: L1+A1 (antibody, human IgG1, kappa, V domains shown)
VH: QVQLVQSGAEVKKPGSSVKVSCKASGFYIKDTYMHWVRQAPGQGLEWMGTIDPANGNTKYVPKFQGRVTITADESTSTAYMELSSLRSEDTAVYYCARSIYDDYHYDDYYAMDYWGQGTLVTVSS
VL: DIVMTQSPLSLPVTPGEPASISCRSSQNIVHINGNTYLEWYLQKPGQSPRLLIYKISDRFSGVPDRFSGSGSGTDFTLKISRVEADDVGIYYCFQGSHVPWTFGQGTKLEIKR
notes: Humanised 6A1, VH construct A1 and VL construct L1, human gamma1 wild type / kappa constant regions; also called A1L1; humanised anti-IL-13 mAb L1+A1
The EC50 is the concentration needed to bring the measured effect to its halfway point. The Kd is the free concentration of one partner at which half of the binding sites on the other are occupied at equilibrium, for simple one-to-one binding. In general, koff refers to the first-order rate constant of dissociation. For orientation: kon means the rate constant with which the complex forms. Usually IC50 stands for the concentration at which inhibition is half-maximal. Consider B1, for which the EC50 in assay [1] stood at 0.021 µg/mL. For the same molecule, the Kd came to 9.03 nM in [2], 0.035 nM in assay [7] and 0.3 nM in assay [8]. The koff in assay [2] was 0.0017 s⁻¹; in assay [7], 1.55e-05 s⁻¹; in assay [8], 0.000155 s⁻¹. Moreover, the kon in [2] was determined as 195000 M⁻¹ s⁻¹; in [7], 446000 M⁻¹ s⁻¹; in assay [8], 507000 M⁻¹ s⁻¹. Further, the “Mean ND50 for 2 assays” value in [3] is 0.438 µg/mL; in assay [4], 0.078 µg/mL; in assay [5] it was 0.975 µg/mL; in assay [6], 0.428 µg/mL. Further, the IC50 in assay [9] was determined as 0.113 µg/mL; in [18] it was 0.044 µg/mL. Moreover, the “Average A490” value in assay [10] came to 2.65 A490; in assay [11] it was 2.84 A490; in assay [12] it was 3.02 A490; in assay [13], 0.816 A490; in [14], 2.81 A490; in assay [15], 2.83 A490. In addition, the “Average A490” value was found to be 1.82 A490 in [16] and 2.85 A490 in assay [17].

B2: monoclonal antibody 6A1 (antibody, IgG1, V domains shown)
VH: EIQLQQSVAELVRPGASVRLSCTASGFYIKDTYMHWVIQRPEQGLEWIGTIDPANGNTKYVPKFQGKATITADTSSNTAYLRLSSLTSEDTAIYYCARSIYDDYHYDDYYAMDYWGQGTSVTVSS
VL: DVLMTQTPLSLPVSLGDQASISCRSSQNIVHINGNTYLEWYLQKPGQSPKLLIYKISDRFSGVPDRFSGSGSGTDFTLKISRVEAEDLGVYYCFQGSHVPWTFGGGTKLEIK
notes: also called 6A1 parental mAb; parental mouse mAb 6A1
Take B2: in [1], the EC50 was 0.039 µg/mL. In addition, the Kd in assay [2] is 3.11 nM; in assay [7], 0.061 nM; in [8] it was 0.035 nM. For the same molecule, the koff was 0.000915 s⁻¹ in assay [2], 5.6e-05 s⁻¹ in [7] and 6.78e-05 s⁻¹ in assay [8]. Further, the kon in assay [2] is 295000 M⁻¹ s⁻¹; in assay [7], 914000 M⁻¹ s⁻¹; in assay [8], 1.96e+06 M⁻¹ s⁻¹. Moreover, the “Mean ND50 for 2 assays” value in assay [3] stood at 0.213 µg/mL; in assay [4], 0.078 µg/mL; in [5], 0.44 µg/mL; in [6] it was 0.193 µg/mL. The IC50 in assay [9] was 0.02 µg/mL; in assay [18], 0.039 µg/mL. Further, the “Average A490” value is 3.28 A490 in assay [10]; 3.6 A490 in [11]; 3.85 A490 in [12]; 0.595 A490 in assay [13]; 3.58 A490 in [14]; 3.49 A490 in [15]. For the same molecule, the “Average A490” value in [16] stood at 1.47 A490; in [17], 3.54 A490.

The values above are taken from patent US20110243928A1 (published 2011).
